Test [1] has as its target T1, Recombinant mouse FcγRI [CD64], Gln25-Pro297 with C-terminal 6-His tag (mouse, UniProt P26151 25-297).
T1 construct: range 25-297; Soluble form bought from R&D Systems; also called m-FcγRI
T1 sequence: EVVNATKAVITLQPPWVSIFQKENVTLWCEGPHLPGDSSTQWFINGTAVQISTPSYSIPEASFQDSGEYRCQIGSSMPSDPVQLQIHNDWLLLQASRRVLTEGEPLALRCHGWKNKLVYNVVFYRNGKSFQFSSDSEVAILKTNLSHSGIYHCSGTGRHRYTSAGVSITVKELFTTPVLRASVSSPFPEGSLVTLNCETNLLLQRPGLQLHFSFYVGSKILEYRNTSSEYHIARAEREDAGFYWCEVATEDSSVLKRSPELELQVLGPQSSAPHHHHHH
In words: SPR (Biacore X): m-FcγRI injected over c515H7 Mab immobilized on a CM4 sensorchip; Langmuir model. The protocol: (§1) 2017 RU of c515H7 Mab were immobilized using the amine coupling kit chemistry on the second flowcell (FC2) of a CM4 sensorchip. The first flowcell (FC1) activated by NHS and EDC mixture and des-activated by ethanolamine served as the reference surface to check and subtract the non specific interaction between the analyte (Fc gamma receptors) and the sensorchip matrix.
(§2) The kinetic experiments were carried out at 25° Celsius at a flow rate of 30 μl/min. The HBS-EP buffer was used either as the running buffer or for the preparation of analyte solutions. The analyte solutions were injected during 90 seconds (association phase) with a 90 seconds delay (dissociation phase). An injection of running buffer as analyte was used as a double reference. All the sensorgrams were corrected by this double reference sensorgram.
(§3) After each injection of the analyte, the sensorchip was regenerated by injection of 20 mM NaOH, 75 mM NaCl solution.

Test [2] has as its target T2, Recombinant mouse FcγRIII [CD16], Ala31-Thr215 with C-terminal 10-His tag (mouse, UniProt P08508 31-215).
T2 construct: Soluble form bought from R&D Systems; also called m-FcγRIII
T2 sequence: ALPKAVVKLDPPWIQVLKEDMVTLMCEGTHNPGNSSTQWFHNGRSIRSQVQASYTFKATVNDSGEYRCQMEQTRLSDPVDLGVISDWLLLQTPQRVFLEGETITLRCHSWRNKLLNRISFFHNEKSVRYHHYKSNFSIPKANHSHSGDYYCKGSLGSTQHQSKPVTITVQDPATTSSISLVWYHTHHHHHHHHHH
In words: SPR (Biacore X): m-FcγRIII injected over c515H7 Mab immobilized on a CM4 sensorchip; Langmuir model. Here is the method: as §1, §2, §3

Test [3] deals with T1, Recombinant mouse FcγRI [CD64], …. In words: SPR (Biacore X): m-FcγRI injected over c515H7 Mab immobilized on a CM4 sensorchip; heterogeneous ligand model, minor component (19%). The protocol:
as §1, §2, §3
For orientation: Surface plasmon resonance follows binding to a sensor surface in real time, without labels.

The target is the same in test [4]. In words: SPR (Biacore X), heterogeneous ligand model, m-FcγRI as analyte. Here is the method:
(§4) 1964 RU of hz515H7VH1D76NVL2 Mab were immobilized using the amine coupling kit chemistry on the second flowcell (FC2) of a CM4 sensorchip. The first flowcell (FC1) activated by NHS and EDC mixture and des-activated by ethanolamine served as the reference surface to check and subtract the non specific interaction between the analyte (Fc gamma receptors) and the sensorchip matrix.
as §2
According to this model, the hz515H7VH1D76NVL2 Mab Fc domain may be regarded as a mixture of two components.

The target is the same in test [5]. In words: SPR (Biacore X), Mab on CM4 chip, m-FcγRI as analyte, heterogeneous ligand model, minor component. Here is the method: as §4, §2
(§5) After each injection of the analyte, the sensorchip was regenerated by injection of either 20 mM NaOH solution after h-FcγRI and m-FcγRIII or 10 mM NaOH after h-FcγRIIIA and m-FcγRI.

The target in test [6] is T2, Recombinant mouse FcγRIII [CD16], …. In words: SPR (Biacore X), Mab on CM4 chip, m-FcγRIII as analyte, Langmuïr model; lower of the two Langmuïr-fit values. The protocol: as §4, §2
Using the Langmuïr model the constant of dissociation was around 17 and 18 nM.

Test [7] has as its target T1, Recombinant mouse FcγRI [CD64], …. In words: SPR (Biacore X): m-FcγRI injected over hz515H7VH1D76NVL2 Mab immobilized on a CM4 sensorchip; Langmuir model. The protocol:
as §4, §2, §5

The target of test [8] is T2, Recombinant mouse FcγRIII [CD16], …. In words: SPR (Biacore X): m-FcγRIII injected over hz515H7VH1D76NVL2 Mab immobilized on a CM4 sensorchip; heterogeneous ligand model, major component (66%).
The target of test [9] is T3, Recombinant human FcγRIIIA variant V [CD16a], Gln17-Gln208 with C-terminal 6-His tag (human, UniProt P08637 17-208).
T3 construct: range 17-208; 'variant V' is given without a position, so no substitution is written; also called h-FcγRIIIA
T3 sequence (P08637 other isoform, or with tags, fused parts or gaps mutant limits assumed, form in doubt): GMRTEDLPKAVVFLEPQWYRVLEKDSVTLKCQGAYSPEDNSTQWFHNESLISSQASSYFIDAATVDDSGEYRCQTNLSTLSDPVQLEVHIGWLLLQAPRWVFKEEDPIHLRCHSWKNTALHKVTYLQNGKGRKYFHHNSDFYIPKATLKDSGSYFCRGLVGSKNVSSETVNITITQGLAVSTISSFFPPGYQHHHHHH
In words: SPR (Biacore X): h-FcγRIIIA injected over hz515H7VH1D76NVL2 Mab immobilized on a CM4 sensorchip; heterogeneous ligand model, major component (79%). Here is the method: as §4, §2
Sensorgrams obtained with h-FcγRIIIA [FIG. 16] were clearly not fitted by the Langmuïr model (Chi2/Rmax>20%). […] According to this model, the hz515H7VH1D76NVL2 Mab Fc domain may be regarded as a mixture of two components. […] According to the literature, the heterogeneity observed with h-FcγRIIIA was probably linked to the glycosylation heterogeneity on the Mab Fc domain.

Changes are numbered by the printed parent chain. Names may count otherwise.

The record followed here is patent US20140120555A1 (PIERRE FABRE MEDICAMENT, published 2014).

B1: chimeric antibody c515H7 (antibody, human IgG1, kappa)
heavy: not shown
light: DIVMSQSPSSLAVSAGEKVTMSCKSSQSLFNSRTRKNYLAWYQQKPGQSPKLLIYWASARDSGVPARFTGSGSETYFTLTISRVQAEDLAVYYCMQSFNLRTFGGGTKLEIKRTVAAPSVFIFPPSDEQLKSGTASVVCLLNNFYPREAKVQWKVDNALQSGNSQESVTEQDSKDSTYSLSSTLTLSKADYEKHKVYACEVTHQGLSSPVTKSFNRGEC
notes: Human IgG1/kappa constant domains; also called c515H7 Mab; chimeric 515H7
Take B1: in test [1], the Kd (as a rule, the constant that tells how readily two partners part at equilibrium) is 106 nM; the koff (in general, the first-order rate constant of dissociation) amounted to 0.0661 s⁻¹; the on-rate constant (kon) (usually a measure of how fast the partners come together) was determined as 622000 M⁻¹ s⁻¹. In test [2], the Kd was found to be 20.9 nM, the koff was found to be 0.00442 s⁻¹ and the kon is 211000 M⁻¹ s⁻¹. In addition, in test [3], the Kd is 34.6 nM, the koff is 0.0387 s⁻¹ and the kon worked out at 1.12e+06 M⁻¹ s⁻¹.

B2: humanized antibody Hz515H7 VH1 D76N VL2 (antibody, human IgG1, kappa)
heavy: not shown
light: B1 light with S5T, A15L, K18R, V19A, G105Q, L109V
notes: IgG1/kappa; also called hz515H7VL2; hz515H7-1
Consider B2, for which, in test [4], the “fold association rate, major versus minor component” value was 5.7 fold. The “fold dissociation rate, major versus minor component” value in test [4] was determined as 4.8 fold. For the same molecule, the Kd in test [5] was around 90 nM; in test [6] it was around 17 nM; in test [7], 77 nM; in test [8], 0.2 nM; in test [9], 325 nM. The koff is 0.0648 s⁻¹ in [7], 3.7e-05 s⁻¹ in [8] and 0.187 s⁻¹ in [9]. Moreover, the kon in test [7] was 842000 M⁻¹ s⁻¹; in test [8], 178000 M⁻¹ s⁻¹; in test [9], 575000 M⁻¹ s⁻¹.
